Where two headings read alike, the source gives them in different places.
What was measured:
SEC = target: the molecule itself; assay: SEC
[1] = target: P60: the first 60 amino acids of VSV phosphoprotein P, a two-amino acid linker and a C-terminal His6-tag (vesicular stomatitis virus, UniProt P03520 1-60); assay: NMR titration; settings: both partners purified
[2] = target: T1, vesicular stomatitis virus nucleoprotein lacking its 21 N-terminal residues (N[change]), MBP tag removed (vesicular stomatitis virus, UniProt P03521 22-422); assay: SEC-MALS; settings: both partners purified
[3] = target: T1, vesicular stomatitis virus …

B1: N[change] in fusion with an N-terminal maltose binding protein tag (MBP-N[change]) (domain or fragment)
chain: EDPVEYPADYFRKSKEIPLYINTTKSLSDLRGYVYQGLKSGNVSIIHVNSYLYGALKDIRGKLDKDWSSFGINIGKAGDTIGIFDLVSLKALDGVLPDGVSDASRTSADDKWLPLYLLGLYRVGRTQMPEYRKKLMDGLTNQCKMINEQFEPLVPEGRDIFDVWGNDSNYTKIVAAVDMFFHMFKKHECASFRYGTIVSRFKDCAALATFGHLCKITGMSTEDVTTWILNREVADEMVQMMLPGQEIDKADSYMPYLIDFGLSSKSPYSSVKNPAFHFWGQLTALLLRSTRARNARQPDDIEYTSLTTAGLLYAYAVGSSADLAQQFCVGDNKYTPDDSTGGLTTNAPPQGRDVVEWLGWFEDQNRKPTPDMMQYAKRAVMSLQGLREKTIGKYAKSEFDK
- binding result (SEC): binds
- binding result [1]: binds

B2: full-length VSV phosphoprotein P dimer (natural protein)
chain: MDNLTKVREYLKSYSRLDQAVGEIDEIEAQRAEKSNYELFQEDGVEEHTKPSYFQAADDSDTESEPEIEDNQGLYAQDPEAEQVEGFIQGPLDDYADEEVDVVFTSDWKPPELESDEHGKTLRLTSPEGLSGEQKSQWLSTIKAVVQSAKYWNLAECTFEASGEGVIMKERQITPDVYKVTPVMNTHPSQSEAVSDVWSLSKTSMTFQPKKASLQPLTISLDELFSSRGEFISVGGDGRMSHKEAILLGLRYKKLYNQARVKYSL
- stoichiometry N [2]: 2 P molecules per NΔ21

Binder: VREYLKSYSRLDQAVGEIDEIEAQRAEKSNYELF [shorter peptide encompassing residues 7 to 40 of P]
- stoichiometry N [3]: 1

Source: article PMC3178552 (PLoS Pathogens, 2011)
